A short description of data set [1]: Intact half-life during simulated gastric fluid (SGF) digestion. The conditions noted are these: for SGF Half-life (t½): SGF pH 1.5, pepsin:polypeptide 1:20 w/w, 37° C., intact protein; for Half-life: purified proteins, chip electrophoresis.
A short description of data set [2]: Thermostability, temperature of aggregation (ProteoStat Thermal Shift). In kind it is physicochemical. The arrangement: key to Tagg: temperature in °C. As to conditions: for Tagg (pH 7.1): Table E31D, heated 25° C. to 95° C. How it is done:
The thermostability of proteins in a buffer cocktail of Citric Acid and Dibasic Sodium Phosphate over a pH range of 2.8 to 7.1 (preparation described above in Table E31B) was determined using the ProteoStat® Thermal Shift Stability Kit (Enzo Life Sciences) according to the manufacturer's standard protocol. Briefly, protein solutions (˜10 mg/ml) containing 1× ProteoStat TS Detection Reagent were heated from 25° C. to 95° C. at a rate of 0.5° C. per 30 sec using a real-time PCR (rtPCR) thermocycler (BioRad) equipped with a plate reader (SynergyMx, Biotek) while monitoring the fluorescence with a Texas Red filter.

Data set [3] in a line: SGF digest of 168 nutritive polypeptide library, intact protein by LC-MS/MS. In kind it is in vitro ADME. As to conditions: for % Intact Protein at 10 min: 168 nutritive polypeptide library SGF digest, LC-MS/MS spectral counts; for % Remaining at 10 min: 168 nutritive polypeptide library, LC-MS/MS. The method in brief: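 Spectral-count ratios (10 min vs 0 min, peak gel fraction plus neighbours) give the percent of each protein left intact after SGF digestion of a pooled, IMAC-purified 168-member recombinant library. Samples were gel-fractionated, trypsinised in-gel and run on Orbitrap nanoLC-MS/MS, requiring two unique peptides at 1% FDR.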

Where a chain is given by its changes, count along the chain named.

B1: SEQID-00102: nutritive polypeptide (protein, listed as Lactobacillus johnsonii)
chain: MTEEEIFNKIADMISERFSIDRDKITKDLNFQNDLDADSIDFVELVMDLEDTFGAEIPDDDAEKLQTVGEAVEYIKSHQN
For B1, the “SGF Half-life (t½)” value in data set [1] is 36 s. For the same molecule, the “Tagg (pH 7.1)” value in data set [2] is given as >95.

B2: SEQID-00302: nutritive polypeptide (protein)
chain: MAKKTVANLSASELSGKKVLVRADFNVPLDNGSISDDTRIRAALPTIQDLTSKGAKVILSSHFGRPQGQVVESMRLTPVAARLSELLGKTVKKCDDCIGEEVAVAVGAMSDGDVLLLENVRFHAAEEKNDPEFAKQLASVADLYVNDAFGTAHRAHASTEGVTKYLSPCVAGYLIEKELQFLQGAIESPQRPLAAIIGGSKVSSKIGVIEALLDKCDKLLLGGGMIFTFYKARGLSVGNSLVEEDKLELAKSLEAKAKEKGVTMLLPTDVVLADKFAADADSQTVSVEAIPDGWMGLDIGPDSVKVFQEALGDCKTVLWNGPMGVFEFEKFAAGTRAIAQTLAELTSTGTTTIIGGGDSVAAVEQLNLGEKMSHISTGGGASLELLEGKQLPGIVALDDA
modifications: Arthrospira platensis C1
notes: nutritive polypeptide
For B2, the “SGF Half-life (t½)” value in data set [1] was 12 s. Moreover, the “Tagg (pH 7.1)” value in data set [2] was determined as 46.

B3: SEQID-00420: nutritive polypeptide (protein)
chain: AAAPLEKRSCTFTSASAAKSGKSSCSTITLDNIAVPAGETLDLTGLKKGTTVIFEGETTFGYKEWKGPLISMSGTDITVKQASGAKINCDGARWWDGKGSNGGKTKPKFFQAHKLDQSSITGLKVYNTPVQGFSILADHLTITDVTIDNSAGTSKGHNTDAFDIGQSTYITIDGATVYNQDDCLAINSGEHITFTNGYCDGGHGLSIGSIGGRSDNTVNDVTISNSKVLNSQNGVRIKTIYGKTGTVENVKFEDITLSDISKYGIVVEQDYENGSPTGTPTNGVKVEDITFKKVTGSVKSSGTDIYILCGSGSCSNWTWSGVDVTGGKKSSKCKNVPSGASCSD
modifications: Aspergillus niger; source: /note="strain CBS 513.88 / FGSC A1513"
For the molecule B3, the “SGF Half-life (t½)” value in data set [1] was 72 s.

B4: SEQID-00220: nutritive polypeptide (protein, listed as Bos taurus)
chain: DTKKKVDDDLGTIENLEEAKKKLLKDVEVLSQRLEEKALAYDKLEKTKTRLQQELDDLLVDLDHQ
Regarding B4, the “SGF Half-life (t½)” value in data set [1] was 30 s. For the same molecule, in data set [2], the “Tagg (pH 7.1)” value is reported as >95.

B5: SEQID-00098: nutritive polypeptide (protein, listed as Lactococcus lactis)
chain: MAVFEKVQDIIVDELGKEKEEVTLETSFEELDADSLDLFQIINDIEDEFDVEVDTEADMKTVADLVKYVENNK
For B5, the “SGF Half-life (t½)” value in data set [1] was 24 s. Also, the Tagg in data set [2] (pH 7.1) is reported as >95.

B6: SEQID-00601: protein of the 168 nutritive polypeptide library (protein, listed as Agaricus bisporus)
chain: MTRSWEPGTQYNLGDVVEYNGDEYKIIQAHSSQSDWAPDRTPALWGKLPHRHHQQGQYQQQQECQPQQPQKTCYDYGKQEQAPQHSDSKEKKNWFGNITESQKQALEVGGGVALGAGLLGGAFAAWKHHQHKEEAHDSFEAWANAARSRAEEFRAKGPQGPATWVYNEGKHIPEQAILVGTEHNWNLYICRAYCDGGVQIGKASDVFKKGAVIGYKEDEHHLDKYEILLGDMRGLKWVQTGNSLDLASLGATPVEGGYENDHTRLYIARAFHKGAKHPGKVSERLDGAYIPYDGKEKCVKEYEVLCYL
modifications: source: /note="var. bisporus"; source: /note="strain H97 / ATCC MYA-4626 / FGSC 10389"
notes: protein of the 168 nutritive polypeptide library
For B6, in data set [1], the “SGF Half-life (t½)” value is 12 s. Further, the “Half-life” value in data set [1] is 12 s. The Tagg in data set [2] (pH 2.8) is on record as 95; in data set [2] (pH 3.7), 95; in data set [2] (pH 4.3), 95^; in data set [2] (pH 6.5), 45.5; in data set [2] (pH 7.1) it was 48.5. In data set [3], the “% Intact Protein at 10 min” value is reported as 1.1%. In addition, the “% Remaining at 10 min” value in data set [3] came to 1.1%.

B7: SEQID-00418: nutritive polypeptide (protein)
chain: VPRVRRQGASSSFDYKSQIVRGVNLGGWLVTEPWITPSLYDSTGGGAVDEWTLCQILGKDEAQAKLSSHWSSFITQSDFDRMAQAGLNHVRIPIGYWAVAPIDGEPYVSGQIDYLDQAVTWARAAGLKVLVDLHGAPGSQNGFDNSGHRGPIQWQQGDTVNQTMTAFDALARRYAQSDTVTAIEAVNEPNIPGGVNEDGLKNYYYGALADVQRLNPSTTLFMSDGFQPVESWNGFMQGSNVVMDTHHYQVFDTGLLSMSIDDHVKTACSLATQHTMQSDKPVVVGEWTGALTDCAKYLNGVGNAARYDGTYMSTTKYGDCTGKSTGSVADFSADEKANTRRYIEAQLEAYEMKSGWLFWTWKTEGAPGWDMQDLLANQLFPTSPTDRQYPHQCS
modifications: Aspergillus niger; source: /note="strain CBS 513.88 / FGSC A1513"
On to B7, for which the “SGF Half-life (t½)” value in data set [1] is 12 s.

B8: SEQID-00418 (E. coli): nutritive polypeptide (protein)
chain: B7 chain
modifications: Aspergillus niger; source: /note="strain CBS 513.88 / FGSC A1513"
Regarding B8, the “SGF Half-life (t½)” value in data set [1] was 30 s.

B9: SEQID-00305: nutritive polypeptide (protein, listed as Bos taurus)
chain: MPHQYPALTPEQKKELCDIAHRIVAPGKGILAADESTGSIAKRLQSIGTENTEENRRFYRQLLLTADDRVNPCIGGVILFHETLYQKADDGRPFPQVIKAKGGVVGIKVDKGVVPLAGTNGETTTQGLDGLSERCAQYKKDGADFAKWRCVLKIGEHTPSSLAIMENANVLARYASICQQNGIVPIVEPEILPDGDHDLKRCQYVTEKVLAAVYKALSDHHIYLEGTLLKPNMVTPGHACTQKYSHEEIAMATVTALRRTVPPAVPGITFLSGGQSEEEASINLNAINKCPLLKPWALTFSYGRALQASALKAWGGKKENLKAAQEEYVKRALANSLACQGKYTPSGKAGAAASESLFISNHAY
Take B9: the “SGF Half-life (t½)” value in data set [1] is 12 s. For the same molecule, the “Tagg (pH 7.1)” value in data set [2] is reported as 48.

B10: SEQID-00672 (BS): nutritive polypeptide (protein, listed as Saccharomyces cerevisiae)
chain: MSSSESIRMVLIGPPGAGKGTQAPNLQERFHAAHLATGDMLRSQIAKGTQLGLEAKKIMDQGGLVSDDIMVNMIKDELTNNPACKNGFILDGFPRTIPQAEKLDQMLKEQGTPLEKAIELKVDDELLVARITGRLIHPASGRSYHKIFNPPKEDMKDDVTGEALVQRSDDNADALKKRLAAYHAQTEPIVDFYKKTGIWAGVDASQPPATVWADILNKLGKD
modifications: source: /note="strain ATCC 204508 / S288c"
Consider B10, for which the “SGF Half-life (t½)” value in data set [1] is 18 s.

B11: SEQID-00678 (BS): nutritive polypeptide (protein, listed as Saccharomyces cerevisiae)
chain: B10 chain with R42K
modifications: source: /note="strain ATCC 204508 / S288c"
For the molecule B11, the “SGF Half-life (t½)” value in data set [1] was 12 s.

B12: SEQID-00598: nutritive polypeptide naturally produced in Flaxseed, recombinantly expressed in E. coli (protein, listed as Linum usitatissimum)
chain: MSRRCPGKNAWPELVGKSGNMAAATVERENRNVHAIVLKEGSAMTKDFRCDRVWVIVNDHGVVTSVPHIT
B12: in data set [1], the “SGF Half-life (t½)” value is 30 s and the “Half-life” value is 30 s. Moreover, in data set [3], the “% Intact Protein at 10 min” value was 24.3% and the “% Remaining at 10 min” value stood at 24.3%.

B13: SEQID-00099: nutritive polypeptide (protein, listed as Thermosynechococcus elongatus)
chain: MNQSEILEKVKAIVADQLSVDPEKVVPEASFAEDLNADSLDSVELIMALEEEFGVEIPDEEAEKLKTVQDVLDFINNKVAA
On to B13, for which the “SGF Half-life (t½)” value in data set [1] was 60 s. In addition, the “Tagg (pH 7.1)” value in data set [2] is listed as 64.

B14: SEQID-00647: protein of the 168 nutritive polypeptide library (protein)
chain: MALSKIEEARQLNDDDLSEQILEIKKQLANLRLLKATGRLEKPHEIRHTRHRLSQLLTVERERQLPNQSPA
modifications: Arthrospira platensis C1
notes: as for B6
As for B14, in data set [1], the “SGF Half-life (t½)” value was 12 s and the “Half-life” value is 12 s. Moreover, in data set [3], the “% Intact Protein at 10 min” value turned out to be 12% and the “% Remaining at 10 min” value is on record as 12%.

B15: SEQID-00546: protein of the 168 nutritive polypeptide library (protein, listed as Saccharomyces cerevisiae)
chain: MCSAGGIRRPIQIEEFKTAISGMSDMELAQIKTEIENSINHLQRSNARLGKYIAKLEGADDRLEADDSDDLENIDSGDLALYKDSVRENEIVLNNYNERVDALEQETVYRKTGHGKSKHEVEAKDNTNKGPDVDMDNSNVDVVTPNSIFI
modifications: source: /note="strain ATCC 204508 / S288c"
notes: as for B6
With B15, in data set [1], the “SGF Half-life (t½)” value is <600 s. Besides, the “% Intact Protein at 10 min” value in data set [3] is reported as 0%.

Values taken from patent publication US20160228506A1, “Compositions and Formulations for Prevention and Reduction of Tumorigenesis, Cancer Cell Proliferation and Invasion, and Methods of Production and Use Thereof in Cancer Treatment” (PRONUTRIA, INC., priority 2013, published 2016).
